Substrate: Nc1ncnc2c1ncn2[C@@H]1O[C@H](COP(=O)(O)OP(=O)(O)OP(=O)(O)O)[C@@H](O)[C@H]1O
Test: real-time fluorescent phosphate-release ATPase assay
Assay type: biochemical, Saccharomyces cerevisiae
Details: nucleosome-stimulated, 15 nM nucleosomes, 23 °C

B1: SWI/SNF (Saccharomyces cerevisiae S288C) (protein)
chain: MNIPQRQFSNEEVNRCYLRWQHLRNEHGMNAPSVPEFIYLTKVLQFAAKQRQELQMQRQQQGISGSQQNIVPNSSDQAELPNNASSHISASASPHLAPNMQLNGNETFSTSAHQSPIMQTQMPLNSNGGNNMLPQRQSSVGSLNATNFSPTPANNGENAAEKPDNSNHNNLNLNNSELQPQNRSLQEHNIQDSNVMPGSQINSPMPQQAQMQQAQFQAQQAQQAQQAQQAQQAQARLQQGRRLPMTMFTAEQSELLKAQITSLKCLVNRKPIPFEFQAVIQKSINHPPDFKRMLLSLSEFARRRQPTDQNNQSNLNGGNNTQQPGTNSHYNNTNTDNVSGLTRNAPLDSKDENFASVSPAGPSSVHNAKNGTLDKNSQTVSGTPITQTESKKEENETISNVAKTAPNSNKTHTEQNNPPKPQKPVPLNVLQDQYKEGIKVVDIDDPDMMVDSFTMPNISHSNIDYQTLLANSDHAKFTIEPGVLPVGIDTHTATDIYQTLIALNLDTTVNDCLDKLLNDECTESTRENALYDYYALQLLPLQKAVRGHVLQFEWHQNSLLTNTHPNFLSKIRNINVQDALLTNQLYKNHELLKLERKKTEAVARLKSMNKSAINQYNRRQDKKNKRLKFGHRLIATHTNLERDEQKRAEKKAKERLQALKANDEEAYIKLLDQTKDTRITHLLRQTNAFLDSLTRAVKDQQKYTKEMIDSHIKEASEEVDDLSMVPKMKDEEYDDDDDNSNVDYYNVAHRIKEDIKKQPSILVGGTLKDYQIKGLQWMVSLFNNHLNGILADEMGLGKTIQTISLLTYLYEMKNIRGPYLVIVPLSTLSNWSSEFAKWAPTLRTISFKGSPNERKAKQAKIRAGEFDVVLTTFEYIIKERALLSKVKWVHMIIDEGHRMKNAQSKLSLTLNTHYHADYRLILTGTPLQNNLPELWALLNFVLPKIFNSVKSFDEWFNTPFANTGGQDKIELSEEETLLVIRRLHKVLRPFLLRRLKKDVEKELPDKVEKVVKCKMSALQQIMYQQMLKYRRLFIGDQNNKKMVGLRGFNNQIMQLKKICNHPFVFEEVEDQINPTRETNDDIWRVAGKFELLDRILPKLKATGHRVLIFFQMTQIMDIMEDFLRYINIKYLRLDGHTKSDERSELLRLFNAPDSEYLCFILSTRAGGLGLNLQTADTVIIFDTDWNPHQDLQAQDRAHRIGQKNEVRILRLITTNSVEEVILERAYKKLDIDGKVIQAGKFDNKSTSEEQEALLRSLLDAEEERRKKRESGVEEEEELKDSEINEILARNDEEMAVLTRMDEDRSKKEEELGVKSRLLEKSELPDIYSRDIGAELKREESESAAVYNGRGARERKTATYNDNMSEEQWLRQFEVSDDEKNDKQARKQRTKKEDKSEAIDGNGEIKGENIDADNDGPRINNISAEDRADTDLAMNDDDFLSKKRKAGRPRGRPKKVKLEGSENSEPPALESSPVTGDNSPSEDFMDIPKPRTAGKTSVKSARTSTRGRGRGRGRGRGRGRGRGRPPKARNGLDYVRTPAAATSPIDIREKVAKQALDLYHFALNYENEAGRKLSDIFLSKPSKALYPDYYMIIKYPVAFDNINTHIETLAYNSLKETLQDFHLIFSNARIYNTEGSVVYEDSLELEKVVTKKYCEIMGDNSQLDFTEFDEQYGTRPLVLPPVVTSSVAESFTDEADSSMTEASV
Km: 80.5 µM
